From the RNAGym collection of RNA variant scans (doi:10.7554/elife.80360) come the findings set out here.

First the molecules themselves.
B1: Hammerhead Ribozyme (parent)
chain: ACCGGAUGUGCUUUCCGGUCUGAUGAGUCCGUGAGGACGAAACAG

In the series the parent is B1. The experiment in a line: self-cleavage, relative activity (ratio to wild type); higher = more cleavage; co-transcriptional.
With ACCGGAUGUGCUAUCCGGUCUGAUGAGUCCGUGACGACGAAACAG, the self-cleavage stood at 0.799.
Consider ACCGGAUGUGCUAUCCGGUCUGAUGAGUCCGUGAGGAAGAAACAG, for which the self-cleavage turned out to be 0.808.
Regarding ACCGGAUGUGCUAUCCGGUCUGAUGAGUCCGUGAGGAGGAAACAG, the self-cleavage worked out at 0.728.
Then ACCGGAUGUGCUAUCCGGUCUGAUGAGUCCGUGAGGAUGAAACAG, with 1.5; and ACCGGAUGUGCUAUCCGGUCUGAUGAGUCCGUGAGGACGAUACAG, with 0.355.
Take ACCGGAUGUGCUAUCCGGUCUGAUGAGUCCGUGAGGACGACACAG: the self-cleavage came to 0.368.
Then ACCGGAUGUGCUAUCCGGUCUGAUGAGUCCGUGAGGACGAGACAG, with 0.311; and ACCGGAUGUGCUAUCCGGUCUGAUGAGUCCGUGAGGACGAAACCG, with 0.619.
In the case of ACCGGAUGUGCUAUCCGGUCUGAUGAGUCCGUGAGGACGAAACGG, the self-cleavage worked out at 1.8.
As for ACCGGAUGUGCUAUCCGGUCUGAUGAGUCCGUGAGGACGAAACUG, the self-cleavage is 0.749.
The value for ACCGGAUGUGCUAUACGGUCUGAUGAGUCCGUGAGGACGAAACAG was 0.926; that for ACCGGAUGUGCUAUGCGGUCUGAUGAGUCCGUGAGGACGAAACAG was 0.895.
Then ACCGGAUGUGCUAUUCGGUCUGAUGAGUCCGUGAGGACGAAACAG, with 0.907; and ACCGGAUGUGCUAUCCGGACUGAUGAGUCCGUGAGGACGAAACAG, with 0.36; and ACCGGAUGUGCUAUCCGGCCUGAUGAGUCCGUGAGGACGAAACAG, with 0.898.
Then ACCGGAUGUGCUAUCCGGGCUGAUGAGUCCGUGAGGACGAAACAG, with 0.425; and ACCGGAUGUGCUCUCCGGUCUGAUGAGUCCGUGAGGGCGAAACAG, with 1.26.
Consider ACCGGAUGUGCUCUCCGGUCUGAUGAGUCCGUGAGGUCGAAACAG, for which the self-cleavage is 0.482.
With ACCGGAUGUGCUCUCCGGUCUGAUGAGUCCGUGAGGCCGAAACAG, the self-cleavage was 1.07.
Then ACCGGAUGUGCUAUCCGGUCUGAUGAGCCCGUGAGGACGAAACAG, with 1.58.
Then ACCGGAUGUGCUAUCCGGUCUGAUGAGGCCGUGAGGACGAAACAG, with 1.4.
The value for ACCGGAUGUGCUAUCCGGUCUGAUGAGACCGUGAGGACGAAACAG was 1.1; that for ACCGGAUGUGCUAUCCGGUCUGACGAGUCCGUGAGGACGAAACAG was 1.07.
Take ACCGGAUGUGCUAUCCGGUCUGAAGAGUCCGUGAGGACGAAACAG: the self-cleavage came to 1.09.
The value for ACCGGAUGUGCUAUCCGGUCUGAGGAGUCCGUGAGGACGAAACAG was 1.99; that for ACCGGAUGUGCUAUCCGGUCUGAUGAGUCCGUGAGGACGAAACAC was 0.808; that for ACCGGAUGUGCUAUCCGGUCUGAUGAGUCCGUGAGGACGAAACAA was 0.883.
Then ACCGGAUGUGCUAUCCGGUCUGAUGAGUCCGUGAGGACGAAACAU, with 1.02; and ACCGGAUGUGCUAUCCGGUCUGAUGAGUCCGUGAGGUCGAAACAG, with 0.908; and ACCGGAUGUGCUAUCCGGUCUGAUGAGUCCGUGAGGGCGAAACAG, with 1.15.
With ACCGGAUGUGCUAACCGGUCUGAUGAGUCCGUGAGGACGAAACAG, the self-cleavage is 1.15.
Then ACCGGAUGUGCUAGCCGGUCUGAUGAGUCCGUGAGGACGAAACAG, with 1.16; and ACCGGAUGUGCUACCCGGUCUGAUGAGUCCGUGAGGACGAAACAG, with 0.548; and ACCGGAUGUGCUAUCCGGUCUGAUGAGUCCGUGAGGACGAAUCAG, with 0.339.
The value for ACCGGAUGUGCUAUCCGGUCUGAUGAGUCCGUGAGGACGAACCAG was 0.314; that for ACCGGAUGUGCUAUCCGGUCUGAUGAGUCCGUGAGGACGAAGCAG was 0.344; that for ACCGGAUGUGCUAUCCGGUAUGAUGAGUCCGUGAGGACGAAACAG was 0.446.
Then ACCGGAUGUGCUAUCCGGUUUGAUGAGUCCGUGAGGACGAAACAG, with 0.681; and ACCGGAUGUGCUAUCCGGUGUGAUGAGUCCGUGAGGACGAAACAG, with 0.354.
Consider ACCGGAUGUGCUCUCCGGUCUGAUGAGUCCGUGUGGACGAAACAG, for which the self-cleavage was 1.12.
The value for ACCGGAUGUGCUCUCCGGUCUGAUGAGUCCGUGGGGACGAAACAG was 0.776; that for ACCGGAUGUGCUCUCCGGUCUGAUGAGUCCGUGCGGACGAAACAG was 1.02.
With ACCGGAUGUGCUAUCCGGUCUGAUGAGUCCGUUAGGACGAAACAG, the self-cleavage was 1.46.
For ACCGGAUGUGCUAUCCGGUCUGAUGAGUCCGUAAGGACGAAACAG, the self-cleavage was determined as 1.29.
Then ACCGGAUGUGCUAUCCGGUCUGAUGAGUCCGUCAGGACGAAACAG, with 1.25; and ACCGGAUGUGCUAUCCGGUCUUAUGAGUCCGUGAGGACGAAACAG, with 0.381.
For the variant ACCGGAUGUGCUAUCCGGUCUAAUGAGUCCGUGAGGACGAAACAG, the self-cleavage was 0.298.
The value for ACCGGAUGUGCUAUCCGGUCUCAUGAGUCCGUGAGGACGAAACAG was 0.312; that for ACCGGAUGUGCUAUCCGGUCUGAUGAGUCCGUGAGUACGAAACAG was 0.713.
Then ACCGGAUGUGCUAUCCGGUCUGAUGAGUCCGUGAGAACGAAACAG, with 0.732; and ACCGGAUGUGCUAUCCGGUCUGAUGAGUCCGUGAGCACGAAACAG, with 1.03.
The value for ACCGGAUGUGCUCUCCGGUCUGAUGUGUCCGUGAGGACGAAACAG was 0.622; that for ACCGGAUGUGCUCUCCGGUCUGAUGCGUCCGUGAGGACGAAACAG was 0.782.
As to ACCGGAUGUGCUCUCCGGUCUGAUGGGUCCGUGAGGACGAAACAG, the self-cleavage was 0.313.
Then ACCGGAUGUGCUCUUCGGUCUGAUGAGUCCGUGAGGACGAAACAG, with 1.03.
With ACCGGAUGUGCUCUACGGUCUGAUGAGUCCGUGAGGACGAAACAG, the self-cleavage was 0.834.
Then ACCGGAUGUGCUCUGCGGUCUGAUGAGUCCGUGAGGACGAAACAG, with 0.728.
